Biological target: DENV1 prM protein with H98A (dengue virus 1 (DENV1), FGA/NA d1d strain)
Assay: co-IP

Substance “DENV1 E protein with H244A (natural protein)” has a co-IP at pH 6.0 as percent of that at pH 7.0 of 33%.

Reference: paper PMC4063126
